Among the data in article PMC8373988 (2021) are koff values, retold here.

This assay deals with biotinylated-AviTag-haBiP^T229A-V461F (residues 27–635), unmodified (Chinese hamster, UniProt G3I8R9 27-635, T229A | V461F, biotin on the N-terminal Avi-tag). Kind of assay: BLI; ATP-bound BiP.
biotinylated-AviTag-haBiP^T229A-V461F (residues 27–635), unmodified, sequence (G3I8R9 27-635 T229A/V461F): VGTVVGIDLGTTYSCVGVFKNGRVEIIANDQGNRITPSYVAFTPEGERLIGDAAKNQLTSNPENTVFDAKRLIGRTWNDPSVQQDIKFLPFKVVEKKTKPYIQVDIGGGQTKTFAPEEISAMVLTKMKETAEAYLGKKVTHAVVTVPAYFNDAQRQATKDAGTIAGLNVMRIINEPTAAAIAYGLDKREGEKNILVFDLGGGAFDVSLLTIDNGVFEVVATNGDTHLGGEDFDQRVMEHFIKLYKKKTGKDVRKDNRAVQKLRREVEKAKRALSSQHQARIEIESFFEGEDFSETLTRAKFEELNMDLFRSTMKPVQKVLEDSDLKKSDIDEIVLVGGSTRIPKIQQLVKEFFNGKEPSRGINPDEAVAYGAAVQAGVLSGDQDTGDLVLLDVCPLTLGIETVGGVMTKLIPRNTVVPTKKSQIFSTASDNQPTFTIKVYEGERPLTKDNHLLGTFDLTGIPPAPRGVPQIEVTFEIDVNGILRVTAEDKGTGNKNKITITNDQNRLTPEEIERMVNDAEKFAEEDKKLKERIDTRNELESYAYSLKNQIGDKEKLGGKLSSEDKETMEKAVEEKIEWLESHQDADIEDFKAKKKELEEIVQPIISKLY

B1: isolated TPR domain of FICD (domain or fragment)
chain: LEARAALNQALEMKRQGKREKAQKLFMHALKMDPDFVDALTEFGIFSEEDKDIIQADYLYTRALTISPYH
B1: the koff (usually a measure of how fast the partners let go of each other) came to 0.176 s⁻¹.
